PMC8285372 (2021)

T1: KRAS G12R peptide on HLA-B*07:02 (human)
T1 peptide: GARGVGKSAL


Assays:
[1] = biological target: T1, KRAS G12R peptide on HLA-B*07:02; assay: mean peptide concentration for 50% NFAT activation; J^ASP90 reporter cells 1:1 with HLA-SCD K562 pulsed with titrated peptide (10 μM–1 pM), 16–20 h; full-length, on cells
[2] = biological target: KRAS G12V peptide on HLA-A*11:01 (human); assay: as above

EC50 of peptide [1] [nM]	EC50 of peptide [2] [nM]	Binder
3.38		TCRB7R (TCR) alpha TRAV4 TRAJ41 CDR3: CLVGDFNSNSGYALNF beta TRBV7-2 TRBJ1-2 CDR3: CASKVYGYTF
	0.15	TCRA11V (TCR) alpha TRAV12-1 TRAJ8 CDR3: CAVNPPDTGFQKLVF beta TRBV28 TRBJ2-7 CDR3: CASSLSFRQGLREQYF
